The text below walks through data of patent US9073974B2, “RGD-containing cyclic peptides” (The Regents of the University of California, priority 2009, dated 2015).

Assay [1] addresses αvβ3 integrin (Homo sapiens, UniProt P05106+P06756). As to the kind of experiment: Inhibition of biotinylated LXW7 binding to αvβ3-K562 cells (flow cytometry). More on the design: expressed in transfected cells; host or cells: K562 (gift of Dr. Yoshikazu Takada, UC Davis). The settings on record: LXW9-92: inhibiting the binding of biotinylated LXW7 against αvβ3-K562 cells. As to the method:
The apparent IC50 were calculated using Graph Prism software (≦www.graphpad.com≧).
The samples were analyzed with Coulter XL-MCL flow cytometry. The histogram and mean fluorescence intensity (MFI) were determined. The apparent Kd, IC50 were calculated using Graph Prism software (≦www.graphpad.com≧).

Assay [2] concerns the target T1, αvβ3 integrin (human, UniProt P06756 31-1048; P05106 27-788).
T1 construct: whole, on cells; Same entry used for αvβ3-K562, U-87 MG and A375M cells; also called αvβ3-K562; αvβ3 transfected K562 cells
As to the kind of experiment: flow cytometry, competition with biotinylated LXW7 on αvβ3-K562 cells; ++ = IC50 1-10 µM.

Assay [3] addresses T1, αvβ3 integrin. As to the kind of experiment: flow cytometry, competition with biotinylated LXW7 on αvβ3-K562 cells; +++ = IC50 <1 µM. (In general: Flow cytometry measures light scatter and fluorescence of single cells or particles in a stream.)

Bridge positions count the residues as written; N and C are the ends. Square brackets hold non-standard residues; d marks the D form. Ends that are not written are not given here. Peptide text beside a SMILES is read from it. * marks the point of attachment. Benzoyl(4-NO2) = O=C(c1ccc([N+](=O)[O-])cc1)*; Pro(5R-Ph) = O=C(O)[C@@H]1CC[C@H](c2ccccc2)N1; d1Nal = N[C@H](Cc1cccc2ccccc12)C(=O)O; dBta = N[C@H](Cc1csc2ccccc12)C(=O)O; Cyclohexylacetyl = O=C(CC1CCCCC1)*; 2Naphthoyl = O=C(c1ccc2ccccc2c1)*; dCit = NC(=O)NCCC[C@@H](N)C(=O)O; dPen = CC(C)(S)[C@@H](N)C(=O)O; dNMeV = CN[C@@H](C(=O)O)C(C)C; Nicotinoyl = O=C(c1cccnc1)*; Pentanoyl = CCCCC(=O)*; X4 = O=C(c1ccc(Br)o1)*; βAla = NCCC(=O)O; Sar = CNCC(=O)O

αvβ3 integrin (Homo sapiens, UniProt P05106+P06756), sequence (P06756 31-889 limits assumed): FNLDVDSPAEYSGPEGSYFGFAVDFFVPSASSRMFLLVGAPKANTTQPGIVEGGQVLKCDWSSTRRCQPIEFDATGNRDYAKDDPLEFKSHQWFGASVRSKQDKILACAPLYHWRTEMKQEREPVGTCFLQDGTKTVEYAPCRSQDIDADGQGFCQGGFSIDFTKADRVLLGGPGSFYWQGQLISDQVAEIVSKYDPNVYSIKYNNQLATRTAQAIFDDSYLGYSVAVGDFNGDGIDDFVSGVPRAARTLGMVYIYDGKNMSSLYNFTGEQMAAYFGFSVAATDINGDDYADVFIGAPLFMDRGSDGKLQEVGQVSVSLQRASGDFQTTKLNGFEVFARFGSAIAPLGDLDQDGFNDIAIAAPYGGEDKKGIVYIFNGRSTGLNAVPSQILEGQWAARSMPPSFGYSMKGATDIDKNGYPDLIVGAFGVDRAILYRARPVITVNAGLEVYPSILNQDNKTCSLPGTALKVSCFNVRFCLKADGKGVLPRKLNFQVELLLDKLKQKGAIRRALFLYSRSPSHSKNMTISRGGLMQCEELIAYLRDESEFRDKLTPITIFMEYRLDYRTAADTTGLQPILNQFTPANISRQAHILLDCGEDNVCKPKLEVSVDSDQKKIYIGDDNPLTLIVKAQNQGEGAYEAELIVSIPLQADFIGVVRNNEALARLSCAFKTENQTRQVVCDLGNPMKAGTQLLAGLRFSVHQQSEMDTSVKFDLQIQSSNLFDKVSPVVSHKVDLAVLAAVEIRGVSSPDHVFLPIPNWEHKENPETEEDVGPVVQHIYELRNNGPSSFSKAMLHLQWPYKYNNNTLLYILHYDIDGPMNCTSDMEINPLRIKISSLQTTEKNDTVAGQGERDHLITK
αvβ3 integrin (Homo sapiens, UniProt P05106+P06756), sequence (P06756 891-1048 partner limits assumed): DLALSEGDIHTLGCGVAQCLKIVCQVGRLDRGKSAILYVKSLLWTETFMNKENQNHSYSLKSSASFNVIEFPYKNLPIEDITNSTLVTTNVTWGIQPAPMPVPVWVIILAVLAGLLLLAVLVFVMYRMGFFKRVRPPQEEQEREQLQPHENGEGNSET
αvβ3 integrin (Homo sapiens, UniProt P05106+P06756), sequence (P05106 27-788): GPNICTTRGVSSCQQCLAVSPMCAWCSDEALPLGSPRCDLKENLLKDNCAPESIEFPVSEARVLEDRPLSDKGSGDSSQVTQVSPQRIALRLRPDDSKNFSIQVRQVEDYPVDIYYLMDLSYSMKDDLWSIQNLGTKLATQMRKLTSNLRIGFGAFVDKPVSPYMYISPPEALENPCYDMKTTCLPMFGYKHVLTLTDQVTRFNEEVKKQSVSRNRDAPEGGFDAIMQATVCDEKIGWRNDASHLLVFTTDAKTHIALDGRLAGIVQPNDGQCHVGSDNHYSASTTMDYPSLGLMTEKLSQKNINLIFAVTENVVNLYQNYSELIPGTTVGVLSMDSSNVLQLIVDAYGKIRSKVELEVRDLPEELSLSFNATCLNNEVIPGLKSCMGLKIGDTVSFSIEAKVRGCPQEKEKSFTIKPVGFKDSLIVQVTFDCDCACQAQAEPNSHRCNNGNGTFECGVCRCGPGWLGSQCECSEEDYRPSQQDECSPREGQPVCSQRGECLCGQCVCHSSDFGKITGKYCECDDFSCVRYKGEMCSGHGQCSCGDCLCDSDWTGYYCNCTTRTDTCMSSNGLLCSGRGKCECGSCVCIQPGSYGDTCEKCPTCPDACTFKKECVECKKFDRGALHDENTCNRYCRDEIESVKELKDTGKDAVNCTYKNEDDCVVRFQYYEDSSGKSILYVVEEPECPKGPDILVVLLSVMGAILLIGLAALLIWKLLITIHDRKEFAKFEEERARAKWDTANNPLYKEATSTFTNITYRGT
T1 sequence (P06756 31-1048, chain 1 of 2): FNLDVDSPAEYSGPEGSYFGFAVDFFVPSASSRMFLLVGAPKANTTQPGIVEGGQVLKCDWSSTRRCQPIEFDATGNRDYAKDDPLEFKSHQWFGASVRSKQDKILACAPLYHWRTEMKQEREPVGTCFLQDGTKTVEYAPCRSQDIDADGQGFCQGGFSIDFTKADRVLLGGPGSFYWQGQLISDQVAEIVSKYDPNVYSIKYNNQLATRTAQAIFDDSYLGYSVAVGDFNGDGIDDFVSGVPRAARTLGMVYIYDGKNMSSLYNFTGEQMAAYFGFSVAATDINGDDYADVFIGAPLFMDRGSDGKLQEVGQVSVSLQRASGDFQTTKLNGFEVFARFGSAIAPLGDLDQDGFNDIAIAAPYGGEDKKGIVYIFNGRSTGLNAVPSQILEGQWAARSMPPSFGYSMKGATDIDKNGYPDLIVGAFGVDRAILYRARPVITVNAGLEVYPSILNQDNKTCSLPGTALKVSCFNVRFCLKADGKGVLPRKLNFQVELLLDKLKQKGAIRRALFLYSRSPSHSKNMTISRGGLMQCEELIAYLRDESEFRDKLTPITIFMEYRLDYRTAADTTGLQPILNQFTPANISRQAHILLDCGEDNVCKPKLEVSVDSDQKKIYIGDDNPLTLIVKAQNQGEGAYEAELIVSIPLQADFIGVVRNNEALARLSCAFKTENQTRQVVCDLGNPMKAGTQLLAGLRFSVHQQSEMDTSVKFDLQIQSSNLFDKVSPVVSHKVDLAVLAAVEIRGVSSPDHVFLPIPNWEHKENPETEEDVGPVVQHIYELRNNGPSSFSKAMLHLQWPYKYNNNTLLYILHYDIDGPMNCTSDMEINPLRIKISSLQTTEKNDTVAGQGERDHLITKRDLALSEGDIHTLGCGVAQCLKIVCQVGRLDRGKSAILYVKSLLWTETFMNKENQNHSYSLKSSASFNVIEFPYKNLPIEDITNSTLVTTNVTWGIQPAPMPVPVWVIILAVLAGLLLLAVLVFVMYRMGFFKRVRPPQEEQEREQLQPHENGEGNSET
T1 sequence (P05106 27-788, chain 2 of 2): as the sequence (P05106 27-788) above

Take `CC(C)[C@H]1NC(=O)[C@@H](CC(=O)O)NC(=O)[C@H](CC(=O)O)NC(=O)CNC(=O)[C@H](CCCNC(=N)N)NC(=O)CNC(=O)[C@H](NC(=O)c2ccc3ccccc3c2)CSSC[C@H](C(N)=O)NC1=O` [LXW89, 2-naphthoyl-cGRGDdvc] (2Naphthoyl-[dC]GRGD[dD][dV][dC]-NH2; disulfide 1-8): the IC50 (usually the concentration needed to halve the response being measured) at αvβ3 integrin [1] (class symbols) is under 1 µM.

At αvβ3 integrin [1] (class symbols), `CC(C)[C@H]1NC(=O)[C@@H](CC(=O)O)NC(=O)[C@H](CC(=O)O)NC(=O)CNC(=O)[C@H](CCCNC(=N)N)NC(=O)CNC(=O)[C@H](NC(=O)c2ccc(Br)o2)CSSC[C@H](C(N)=O)NC1=O` [LXW90, 5-bromo-2-furoyl-cGRGDdvc] (X4-[dC]GRGD[dD][dV][dC]-NH2; disulfide 1-8) returned a concentration for half-maximal inhibition (IC50) of 1 to 10 µM.

For `CC(C)[C@H]1NC(=O)[C@@H](CC(=O)O)NC(=O)[C@H](CC(=O)O)NC(=O)CNC(=O)[C@H](CCCNC(=N)N)NC(=O)CNC(=O)[C@H](NC(=O)c2cccnc2)CSSC[C@H](C(N)=O)NC1=O` [LXW92, nicotinyl-cGRGDdvc] (Nicotinoyl-[dC]GRGD[dD][dV][dC]-NH2; disulfide 1-8), the IC50 at αvβ3 integrin [1] (class symbols) is 1 to 10 µM.

`CN1CC(=O)N[C@@H](CCCNC(=N)N)C(=O)NCC(=O)N[C@@H](CC(=O)O)C(=O)N[C@H](CC(=O)O)C(=O)NC2(CCOCC2)C(=O)N[C@H](C(N)=O)CSSC[C@@H](N)C1=O` [LXY38, c-Sar-RGDd-Actp-C] displayed an IC50 at αvβ3 integrin [1] (LXW7 as internal reference) of over 20 µM.

B1: LXW77 (peptide)
peptide: Pentanoyl-[dC]GRGD[dD][dV][dC]-NH2
modifications: disulfide 1-8
SMILES: CCCCC(=O)N[C@@H]1CSSC[C@H](C(N)=O)NC(=O)[C@@H](C(C)C)NC(=O)[C@@H](CC(=O)O)NC(=O)[C@H](CC(=O)O)NC(=O)CNC(=O)[C@H](CCCNC(=N)N)NC(=O)CNC1=O
In the assay with αvβ3 integrin [2], B1 returned an IC50 of 1 to 10 µM.

B2: LXW9 (peptide)
peptide: CGRGD[dD][dV][dC]-NH2
modifications: disulfide 1-8; N-terminus assumed
SMILES: CC(C)[C@H]1NC(=O)[C@@H](CC(=O)O)NC(=O)[C@H](CC(=O)O)NC(=O)CNC(=O)[C@H](CCCNC(=N)N)NC(=O)CNC(=O)[C@@H](N)CSSC[C@H](C(N)=O)NC1=O
B2: the 50% inhibitory concentration (IC50) in the assay with αvβ3 integrin [2] was 1 to 10 µM.

B3: LXW15 (peptide)
peptide: [dC][βAla]RGD[dD][dV][dC]-NH2
modifications: disulfide 1-8; N-terminus assumed
SMILES: CC(C)[C@H]1NC(=O)[C@@H](CC(=O)O)NC(=O)[C@H](CC(=O)O)NC(=O)CNC(=O)[C@H](CCCNC(=N)N)NC(=O)CCNC(=O)[C@H](N)CSSC[C@H](C(N)=O)NC1=O
Consider B3, for which the IC50 in the assay with αvβ3 integrin [2] lay within 1 to 10 µM.

B4: LXW26 (peptide)
peptide: [dC]GRGD[dD][dI][dC]-NH2
modifications: disulfide 1-8; N-terminus assumed
SMILES: CC[C@@H](C)[C@H]1NC(=O)[C@@H](CC(=O)O)NC(=O)[C@H](CC(=O)O)NC(=O)CNC(=O)[C@H](CCCNC(=N)N)NC(=O)CNC(=O)[C@H](N)CSSC[C@H](C(N)=O)NC1=O
With B4, in the assay with αvβ3 integrin [2], the IC50 lay within 1 to 10 µM.

B5: LXW47 (peptide)
peptide: CGRGD[dD][d1Nal]C-NH2
modifications: disulfide 1-8; N-terminus assumed
SMILES: N=C(N)NCCC[C@@H]1NC(=O)CNC(=O)[C@@H](N)CSSC[C@@H](C(N)=O)NC(=O)[C@@H](Cc2cccc3ccccc23)NC(=O)[C@@H](CC(=O)O)NC(=O)[C@H](CC(=O)O)NC(=O)CNC1=O
notes: also called CGRGDd-DNal1-C
Consider B5, for which the IC50 with αvβ3 integrin [2] was 1 to 10 µM.

B6: LXW78 (peptide)
peptide: Cyclohexylacetyl-[dC]GRGD[dD][dV][dC]-NH2
modifications: disulfide 1-8
SMILES: CC(C)[C@H]1NC(=O)[C@@H](CC(=O)O)NC(=O)[C@H](CC(=O)O)NC(=O)CNC(=O)[C@H](CCCNC(=N)N)NC(=O)CNC(=O)[C@H](NC(=O)CC2CCCCC2)CSSC[C@H](C(N)=O)NC1=O
In the case of B6, the 50% inhibitory concentration (IC50) with αvβ3 integrin [2] is 1 to 10 µM.

B7: LXW14 (peptide)
peptide: [dC][Sar]RGD[dD][dV][dC]-NH2
modifications: disulfide 1-8; N-terminus assumed
SMILES: CC(C)[C@H]1NC(=O)[C@@H](CC(=O)O)NC(=O)[C@H](CC(=O)O)NC(=O)CNC(=O)[C@H](CCCNC(=N)N)NC(=O)CN(C)C(=O)[C@H](N)CSSC[C@H](C(N)=O)NC1=O
In the assay with αvβ3 integrin [2], B7 registered a half-maximal inhibitory concentration (IC50) of 1 to 10 µM.

B8: LXW82 (peptide)
peptide: {Benzoyl(4-NO2)}-[dC]GRGD[dD][dV][dC]-NH2
modifications: disulfide 1-8
SMILES: CC(C)[C@H]1NC(=O)[C@@H](CC(=O)O)NC(=O)[C@H](CC(=O)O)NC(=O)CNC(=O)[C@H](CCCNC(=N)N)NC(=O)CNC(=O)[C@H](NC(=O)c2ccc([N+](=O)[O-])cc2)CSSC[C@H](C(N)=O)NC1=O
In the assay with αvβ3 integrin [2], B8 came in with an IC50 of 1 to 10 µM.

B9: LXW22 (peptide)
peptide: [dC]GRGD[dD][dNMeV][dC]-NH2
modifications: disulfide 1-8; N-terminus assumed
SMILES: CC(C)[C@@H]1C(=O)N[C@@H](C(N)=O)CSSC[C@@H](N)C(=O)NCC(=O)N[C@@H](CCCNC(=N)N)C(=O)NCC(=O)N[C@@H](CC(=O)O)C(=O)N[C@H](CC(=O)O)C(=O)N1C
On to B9, for which the IC50 with αvβ3 integrin [3] was under 1000 nM.

B10: LXW13 (peptide)
peptide: [dC][dA]RGD[dD][dV][dC]-NH2
modifications: disulfide 1-8; N-terminus assumed
SMILES: CC(C)[C@H]1NC(=O)[C@@H](CC(=O)O)NC(=O)[C@H](CC(=O)O)NC(=O)CNC(=O)[C@H](CCCNC(=N)N)NC(=O)[C@@H](C)NC(=O)[C@H](N)CSSC[C@H](C(N)=O)NC1=O
B10 returned a half-inhibitory concentration (IC50) with αvβ3 integrin [2] of 1 to 10 µM.

B11: LXW21 (peptide)
peptide: [dC]GRGD[dD][dV][dPen]-NH2
modifications: disulfide 1-8; N-terminus assumed
SMILES: CC(C)[C@H]1NC(=O)[C@@H](CC(=O)O)NC(=O)[C@H](CC(=O)O)NC(=O)CNC(=O)[C@H](CCCNC(=N)N)NC(=O)CNC(=O)[C@H](N)CSSC(C)(C)[C@H](C(N)=O)NC1=O
B11 displayed a 50% inhibitory concentration (IC50) with αvβ3 integrin [2] of 1 to 10 µM.

B12: LXW71 (peptide)
peptide: [dC]GRGD[dE][Pro(5R-Ph)][dC]-NH2
modifications: disulfide 1-8; N-terminus assumed
SMILES: N=C(N)NCCC[C@@H]1NC(=O)CNC(=O)[C@H](N)CSSC[C@H](C(N)=O)NC(=O)[C@@H]2CC[C@H](c3ccccc3)N2C(=O)[C@@H](CCC(=O)O)NC(=O)[C@H](CC(=O)O)NC(=O)CNC1=O
In the assay with αvβ3 integrin [2], B12 yielded an IC50 of 1 to 10 µM.

As for {p‑chlorophenyl acetyl}-[dC]GRGD[dD][dV][dC]-NH2 (disulfide 1-8) [LXW81], in the assay with αvβ3 integrin [2], the IC50 was in the range of 1 to 10 µM.

Molecule {5‑bromo‑2‑furoyl}-[dC]GRGD[dD][dV][dC]-NH2 (disulfide 1-8) [LXW90] showed a half-maximal inhibitory concentration (IC50) with αvβ3 integrin [2] of 1 to 10 µM.

B13: LXW19 (peptide)
peptide: [dPen]GRGD[dD][dV][dPen]-NH2
modifications: disulfide 1-8; N-terminus assumed
SMILES: CC(C)[C@H]1NC(=O)[C@@H](CC(=O)O)NC(=O)[C@H](CC(=O)O)NC(=O)CNC(=O)[C@H](CCCNC(=N)N)NC(=O)CNC(=O)[C@H](N)C(C)(C)SSC(C)(C)[C@H](C(N)=O)NC1=O
In the case of B13, the IC50 in the assay with αvβ3 integrin [2] lay in the range of 1 to 10 µM.

B14: LXW12 (peptide)
peptide: Ac-[dC]GRGD[dD][dV][dC]-NH2
modifications: disulfide 1-8
SMILES: CC(=O)N[C@@H]1CSSC[C@H](C(N)=O)NC(=O)[C@@H](C(C)C)NC(=O)[C@@H](CC(=O)O)NC(=O)[C@H](CC(=O)O)NC(=O)CNC(=O)[C@H](CCCNC(=N)N)NC(=O)CNC1=O
In the assay with αvβ3 integrin [3], B14 yielded an IC50 of under 1000 nM.

In turn, nicotinyl-[dC]GRGD[dD][dV][dC]-NH2 (disulfide 1-8) [LXW92] displayed an IC50 with αvβ3 integrin [2] of 1 to 10 µM.

B15: LXW20 (peptide)
peptide: [dPen]GRGD[dD][dV][dC]-NH2
modifications: disulfide 1-8; N-terminus assumed
SMILES: CC(C)[C@H]1NC(=O)[C@@H](CC(=O)O)NC(=O)[C@H](CC(=O)O)NC(=O)CNC(=O)[C@H](CCCNC(=N)N)NC(=O)CNC(=O)[C@H](N)C(C)(C)SSC[C@H](C(N)=O)NC1=O
For the molecule B15, the half-maximal inhibitory concentration (IC50) with αvβ3 integrin [2] lay in the range of 1 to 10 µM.

B16: LXW73 (peptide)
peptide: [dC]GRGD[dCit][dBta][dC]-NH2
modifications: disulfide 1-8; N-terminus assumed
SMILES: N=C(N)NCCC[C@@H]1NC(=O)CNC(=O)[C@H](N)CSSC[C@H](C(N)=O)NC(=O)[C@@H](Cc2csc3ccccc23)NC(=O)[C@@H](CCCNC(N)=O)NC(=O)[C@H](CC(=O)O)NC(=O)CNC1=O
B16 returned an IC50 with αvβ3 integrin [2] of 1 to 10 µM.

B17: LXW10 (peptide)
peptide: [dC]GRGD[dD][dV]C-NH2
modifications: disulfide 1-8; N-terminus assumed
SMILES: CC(C)[C@H]1NC(=O)[C@@H](CC(=O)O)NC(=O)[C@H](CC(=O)O)NC(=O)CNC(=O)[C@H](CCCNC(=N)N)NC(=O)CNC(=O)[C@H](N)CSSC[C@@H](C(N)=O)NC1=O
In turn, B17 displayed a concentration for half-maximal inhibition (IC50) with αvβ3 integrin [2] of 1 to 10 µM.
